Test results reported in IntAct's records for PubMed 18287031.

B1: Protein aveugle (Drosophila melanogaster (Fruit fly)), Q8ML92 (parent)
chain: MGEETINSTQNKTRTKTTRPKAVYLWTVSDVLKWYRRHCGEYTQYEQLFAQHDITGRALLRITDSSLQRMGVTDNRDREAIWREIVKQRLKTDIMEIRDMERLNIY
B2: Connector enhancer of kinase suppressor of ras 2 (Homo sapiens), Q8WXI2 (parent)
chain: MALIMEPVSKWSPSQVVDWMKGLDDCLQQYIKNFEREKISGDQLLRITHQELEDLGVSRIGHQELILEAVDLLCALNYGLETENLKTLSHKLNASAKNLQNFITGRRRSGHYDGRTSRKLPNDFLTSVVDLIGAAKSLLAWLDRSPFAAVTDYSVTRNNVIQLCLELTTIVQQDCTVYETENKILHVCKTLSGVCDHIISLSSDPLVSQSAHLEVIQLANIKPSEGLGMYIKSTYDGLHVITGTTENSPADRCKKIHAGDEVIQVNHQTVVGWQLKNLVNALREDPSGVILTLKKRPQSMLTSAPALLKNMRWKPLALQPLIPRSPTSSVATPSSTISTPTKRDSSALQDLYIPPPPAEPYIPRDEKGNLPCEDLRGHMVGKPVHKGSESPNSFLDQEYRKRFNIVEEDTVLYCYEYEKGRSSSQGRRESTPTYGKLRPISMPVEYNWVGDYEDPNKMKRDSRRENSLLRYMSNEKIAQEEYMFQRNSKKDTGKKSKKKGDKSNSPTHYSLLPSLQMDALRQDIMGTPVPETTLYHTFQQSSLQHKSKKKNKGPIAGKSKRRISCKDLGRGDCEGWLWKKKDAKSYFSQKWKKYWFVLKDASLYWYINEEDEKAEGFISLPEFKIDRASECRKKYAFKACHPKIKSFYFAAEHLDDMNRWLNRINMLTAGYAERERIKQEQDYWSESDKEEADTPSTPKQDSPPPPYDTYPRPPSMSCASPYVEAKHSRLSSTETSQSQSSHEEFRQEVTGSSAVSPIRKTASQRRSWQDLIETPLTSSGLHYLQTLPLEDSVFSDSAAISPEHRRQSTLPTQKCHLQDHYGPYPLAESERMQVLNGNGGKPRSFTLPRDSGFNHCCLNAPVSACDPQDDVQPPEVEEEEEEEEEEGEAAGENIGEKSESREEKLGDSLQDLYRALEQASLSPLGEHRISTKMEYKLSFIKRCNDPVMNEKLHRLRILKSTLKAREGEVAIIDKVLDNPDLTSKEFQQWKQMYLDLFLDICQNTTSNDPLSISSEVDVITSSLAHTHSYIETHV
partner: B1 chain

Variants of: B1
Conditions: with cnkr2_human CNKSR2, Q8WXI2

Row | Variant | effect of a mutation on the interaction
1 | MGEETINSTQNKTRTKTTRPKAVYLWTVSDVLKWYRRHCGEYTQYEQLFAQHDITGEALLEITDSSLQRMGVTDNRDREAIWREIVKQRLKTDIMEIRDMERLNIY [R57E;R61E] | disrupting interaction
2 | MGEETINSTQNKTRTKTTRPKAVYLWTVSDVLKWYRRHCGEYTQYEQLFAQHDITGRALLEITDSSLQRMGVTDNRDREAIWREIVKQRLKTDIMEIRDMERLNIY [R61E] | decreasing interaction
3 | MGEETINSTQNKTRTKTTRPKAVYLWTVSDVLKWYRRHCGEYTQYEQLFAQHDITGAALLAITDSSLQRMGVTDNRDREAIWREIVKQRLKTDIMEIRDMERLNIY [R57A;R61A] | decreasing interaction

Variants of: B2
Conditions: with ave_drome ave, Q8ML92

Row | Variant | effect of a mutation on the interaction
4 | E68R;D71R | disrupting interaction
5 | D71R | decreasing interaction
6 | I60A | decreasing interaction
